Laboratory results from patent publication US20050037947A1, “INHIBITION OF DRUG BINDING TO SERUM ALBUMIN” (priority 2003, published 2005).

Target: human serum albumin (Albuminar, Aventis) (human), P02768
Experiment: SPR (BIACORE 3000), serum albumin immobilised on CM5 chip, analyte injected; Req divided by molecular weight; reference GnRH-Fc

fold more bound (Req/MW) than GnRH-Fc: > 5 times
Binder: QHWSYGLRPG (peptide, UniProt P01148 24-33, looked up, modifications not checked) [GnRH peptide (gonadotropin releasing hormone), P01148 24-33]
